According to patent US20240336661A1, “PEPTIDES DERIVED FROM RUMINOCOCCUS TORQUES” (University of Copenhagen, priority 2021, published 2024):

Experiments:
HepG2 cell line = test: Gluconeogenesis gene expression in HepG2 cells; assay type: cell-based; details: HepG2, q-PCR
Experimental: FIG. 13. […] The cells were treated with various doses of RUCILP2, and cells were collected for q-PCR quantification on indicated genes. For integrin inhibitor treatment, cells were treated with 10 uM of cRGDyK (Selleckchem, #S7844) for 10 minutes and washed with PBS before treated with RUCILP2. Data are presented as mean+/−SEM of one representative experiment done in technical triplicate. Statistical significance was determined by unpaired two-tailed Student's t-test. *, p<0.05 vs 0 nM RUCILP2.
HepG2 cells were seeded on 12-well plates under DMEM/F-12 medium (Dulbecco's Modified Eagle Medium/Nutrient Mixture F-12, Fisher Scientific, #11524436), supplemented with 10% FBS (Fetal Bovine Serum, Fisher Scientific, #11550356) and 1% Penicillin-Streptomycin (Fisher Scientific, #11548876). Cell cultures were maintained in a humidified chamber with 5% C02 at 37° C., and culture media were changed every 2-3 days.
At 70% confluence, to induce insulin resistance, HepG2 cells were incubated with 18 mM glucosamine (GlcN) for 18 h in serum-free medium, followed by treatment with recombinant RUCILP2 or commercial recombinant irisin (Sigma, #SRP8039-10UG and Phoenix pharmaceuticals, #067-29A), or saline for 24 h. […]

[1] = system: human visceral white pre-adipocytes; test: Thermogenesis/browning gene expression in human visceral white pre-adipocytes (q-PCR); assay type: cell-based; details: human white preadipocytes, treatment from third day of differentiation, harvested after 14 days
Experimental: FIG. 9. Exposure of recombinant RUCILP2 to human visceral white pre-adipocytes or murine inguinal white adipocytes causes up-regulation of the expression of genes involved in thermogenesis/browning. Upper panel: mRNA expression level of adipocyte differentiation marker genes including Ucp1, Pparγ1, Dio2, and Cox2 and brown adipocyte-selective genes including Cpt1b and Ebf2 on human white preadipocytes (HWP). Human white preadipocytes were cultured until 80% confluent and switched into differentiation media (with 0.3 ml/ml fetal calf serum, 8 ug/ml d-biotin, 0.5 ug/ml insulin, 400 ng/ml dexamethasone). The differentiation process to mature adipocytes was completed after 12-14 days. The treatment of RUCILP2 started from the third day of differentiation. Cells were harvested after 14 days of differentiation and the gene expressions were quantified by q-PCR. […] Statistical significance was determined by unpaired two-tailed Student's t test. *, p<0.05 vs 0 nM RUCILP2.
FIG. 28. […] Cells were harvested after 14 days of differentiation and the indicated genes were quantified by q-PCR. […] Cells were harvested after 6 days of differentiation and thermogenesis gene were quantified by q-PCR. […] Cells were harvested after 4 days of differentiation and expression of myogenesis genes were quantified by q-PCR. […] Statistical significance was determined by unpaired two-tailed Student's t test, *, p<0.05 […]

B1: RUCILP2: 87 amino acid irisin-like polypeptide cleaved from the Ruminococcus torques FNDC5-like protein RUMTOR_00181; recombinant, 6-His-tagged from E. coli (protein)
chain: APVDVKVSEITETSAKASWKNAADGKEAAGYNVYVDGVKLNKELLTEASCGLTNLKAETTYFVEVTAVDAAGNESVKSEKVTFKTLK
modifications: 6-His tag; Ruminococcus torques
notes: 87 amino acid irisin-like polypeptide cleaved from the Ruminococcus torques FNDC5-like protein RUMTOR_00181; recombinant, 6-His-tagged from E. coli
- expression of genes involved in gluconeogenesis (HepG2 cell line): reduces expression
- expression of genes involved in thermogenesis/browning (Ucp1, Pparγ1, Dio2, Cox2, Cpt1b, Ebf2) [1]: up-regulation
